Measurements reported in PMC7494017.
Blank lines part the entries; values can stand above or below the substance they belong to.

Legend:
[1] = biological target: SAV1 Y273E-WW12ex (mouse); test: ITC
[2] = biological target: SAV1 WW12 (aa E198-A268) (mouse) (UniProt Q8VEB2); test: ITC
[3] = biological target: SAV1 S245D-WW12ex (mouse); test: SEC-MALS

- Kd [1]: 3.8 µM
Substance: Dendrin PY23 (aa D222-G241) (from UniProt Q80TS7 222-241) (domain or fragment)

- fold weakening of binding against WT dendrin PY23 [2]: 18 fold
Substance: Dendrin PY23 with the PPPY motif changed into PPDY (from UniProt Q80TS7 222-241) (domain or fragment)

- stoichiometry N [3]: 2
Substance: SAV1 S245D-WW12ex (domain or fragment)
